In the nanobody polyreactivity screen of Harvey et al. (2022):

Assay: yeast display, Sf9 membrane polyspecificity reagent, FACS + sequencing; frameworks hold sequencing errors
Procedure, shortened: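 Sorting gates, low and high (top ~1%), were placed on anti-HA fluorescence to track expression and on streptavidin fluorescence to track reagent binding. A clone's polyreactivity label is taken from the gate it came out of. The reagent was 10% biotinylated, detergent-solubilized Sf9 membrane, applied for 1 hour at 4 °C to galactose-induced yeast display cells.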

Row | Sequence | polyreactivity (PSR sort gate)
1 | QVKLVESGGGLVQAGGILRLSCAASGSIIVGNPMGWYRQAPGKERELVAAISRSGGSTYYADSVKGRFTISRDIAKNTVYLQMNSLKPEDTEVYYCASVRKQASGVDYWGQGTQVPVSS | high polyreactivity
2 | QVQLVESGGGIVQAGGSLRLSCAATGSIFGNYAMGWYRQAPGKERELVAAITSSGGTYYADSVKGRFTISRDNAKNTVYLQMNSLKPEDTAVYYCAARYYSYRHQSVKYGYWGQGTQVTVSS | high polyreactivity
3 | QVQLVESGGGLVQAGGSLRLSCAASGSIFVRYTMGWYRQAPGKEREMVAAISWGGGSTYYADSVKGRFTISRDNAKNTVYLQMNSLKPEDTAVYYCNADWSWYNYYDFDYWGQGTQVTVSS | low polyreactivity
4 | QVQLVESGGGLVQAGGSLRLSCAASGRTFYYYAMGWYRQAPGKEREFVAAITTRGGSTYYADSVKGRFTISRDNAKNTVYLQMNSLKPEDTAVYYCAARSYYQGGYYYWGQGTQVTVSS | high polyreactivity
5 | QVHLVESGGGLVQAGGSLRLSCAASGSTFYRYAMGWYRQAPGKERELVAAITTSGDSTYYADSVKGRFTISRDNAKNTVYLQMNSLKPEDTAIYDCNKVGRYSSYYWGQGSQVTVSS | high polyreactivity
6 | QVQLVESGGGLVQAGGSLRLSCAASGLTFYTNAMGWYRQAPGKERELVAAITSSGGRTYYADSVKGRFTISRDNAKNTVYLQMNILKPEDTAVYYCAADALRPRIPEMYYWGQGTQVTVSS | high polyreactivity
7 | QVQLVESGGGLVQAGGSLRLSCAASGSTFYPYVMGWYRQAPGKERELVAGISYRGGITYYADSVKGRFTISRDYAKNTVYLQMNSLKPEDTAVYYCAADYWSVYLARKMDYWGQGTQVTVSS | low polyreactivity
8 | QVQLVESGGGLVQAGGSLRLSCAASGFIFYANAMGWYRQAPGKERELVAAITWSGSRTYYADSVKGRFTISRDNAKNTVYLQMNSLKPEDTAVYYCNKDWYVGSFGYPEDYWGQGTQVSVSS | low polyreactivity
9 | QVQLVESGGGLVQAGGSLRLSCAASGSTLKLYVMGWYRQAPGKERELVAAISYSGGSTNYADSVKGRFTISRDNAKNTVYLQMNSLKPEDTAVYYCAAAGYKWYYKYYYWGQGTQVTVSS | high polyreactivity
10 | QVQLVETGGGLVQAGGSLRLSCAASGSIFEYNAMGWYRQAPGKERELVAAISWSSGTTYYADSVKGRFTISRDNAKNSVYLQMNSLKPEDNAVYYCNAGRYGKDSVYWGQVTQVTVSS | low polyreactivity
11 | QVQLVESGGGLVQAGGSLRLSCAASGSTFGRYAMGWYRPAPGKGRELDGAISRRGGSTYYADSVKGRFTISRDYAMKTVYFQMHSLKPEDTAVYDCATGYPIELGREFDYWGQGIQVTVSS | high polyreactivity
12 | QVQLVESGGGLVQAGGSLRLSCAASGRIFGRNAMGWYRQAPGKERELVAAISKSGTSTYYADSVKGRFTISRDNAKNTVYLQMNSLKPEDTAVYYCAAALPGYGDYYYWGQGTQVTVSS | high polyreactivity
13 | QVHLVESGGGLVQAGGSLRLSCAASGRIFAGYGMGWYRQAPGKERELVAAISSGGSTYYADSVKGRFTISRDNAKNPVYLQINSLKPEDTAVYYCAADTYTYYDYMARYYYWGQGTQVTVSS | low polyreactivity
14 | QVQLVESGGGLVQAGGSLRLSCAASGSTSHYNAMGWYRQAPGKERELVASITWSGGSTYYADSVKGRFTISRDNAKNTVYLQMYSLKPEDTAVYYCNAQERRVRDYDYWGQGTQVTVSS | low polyreactivity
15 | QVQLVESGGGLVQAGGSLRLSCAASGFIFGVNAMGWYRQARGKERELVAAISTSGGSTYYADSVKGRFTISRDNAKNTVYLQMNSLKPEDTAVYYCAALLHRWAYGTYGYVYWGQGSQVTVSS | high polyreactivity
16 | QVQLVESGGGLVQAGGSLRLSCAASGRTFRWYAMGWYRQAPGKERELVAAITSDGSTYYADSVKGRFTISRDNAKNTVYLQMNSLKPEDTAVYYCNAAGRYAFPFGYNYWGQGTQVTVSS | high polyreactivity
17 | QVQLVESGGGLVQAGGSLRLSCAASGSTLPYYAMGWYRQAPGKERELVADITARGGTYYADSVKGRFTISRDNAKNTVYLQMNSLKPEDTAVYYCAAEDYWSPGYDYWGQGTQVTVSS | high polyreactivity
18 | QVQLVESGGCLVQAGGSLRLSCAASGSTLYRYVMGWYRPAPGKESELVAAISWSGTNTYADSVKGRFTISRDNAKNTVYLQMNSLKPEDTAVYYSAAAGPGYNWGYRVYAIYDYWGQGSQVTVSS | high polyreactivity
19 | QVQLVESGGGLVQAGGSLRLSCAASGSIFNAYVMGWYRQAPGKERELVAAISRSGGRTYYADSVKGRFTISRDNAKNTVYLQMNSLKPEDNAVYYCAADYGGPYGQLDYWGQGTQVTVSS | high polyreactivity
20 | QVQLVESGGCLVQAGGSLRLSCAASGRIFDHYAMGWYRQAPGKERELVAAITRSGGITYYADSVKGRFTISRDNAKNTVYLQMNSLKPDDTAVFYCAAYLKGNYYLGIARYVLYYWGQGTQVTVSS | low polyreactivity
21 | QVQLVESGGGLVQAGGSLRLSCASSGFTFRSYAMGWYRQAPGKERELVAAIRWSGDSTYYADSVKGRFTISRDNAKNTVYLQMTSLKPEDTAVYYCAAGTYLRYGYWGQGTQVTVSS | high polyreactivity
22 | QVQLVESGGGLVQAGGSLRLSCAASGYIFRYYAMGWYRQAPGKERELVAVISSTGTSTYYADSVKGRFTISRDNAKNTVYLQMNSLKPEDTAVYYCAVKGYFSYWRYQSDYWGQGTQVTVSS | high polyreactivity

Row | Sequence | polyreactivity (PSR sort gate)
23 | QVQLVESGGGLVQAGGSLRLSCAASGSIFNRYAMGLYRQAPVKERELVAAISSTGSTYYADSVKGRFTISRDNAKNTVYLQMNSLKPEDTAVYYCATDDPLSQINEQGMDYWGQGTQVTVSS | low polyreactivity
24 | QVQLVESGGGLVQAGGSLRLSCAASGSTFSQYAMGWYRQAPGKERELVAAITRGGRTYYADSVKGRFTISRDNAKNTVYLQMNSLKPEDTAVYYCNAVLGLLYGYDYWGQGTQVTVSS | high polyreactivity
25 | QVQLVESGGGLVQAGGSLRLSCAASGFIFFRYDMGWYRQAPGKERELVAVITSSGSTNYADSVKGRFTISRDNAKNTVYLQMNSLKPEDTAVYYCNARVSGVYRRRVNYWGEGTQVTVSS | high polyreactivity
26 | QVQLVESGGGLVQAGGSLRLSCAASGFTFRRNAMGWYRQAPGKERELVAAISRGGSSTYYADSVKGRFTISRDNAKNTVYLQMNSLKPEDTAVYYCGARIPNQQGYGYWGQVTQVTVSS | high polyreactivity
27 | QVQLVESGGGLVQAGGSLRLSCAASGSTFVGYAMGWYRHAPGKERELVAAISSSGGRTNYADSVKGRFTISRDNAKNTVYLQMNSLKPEDTAVYYCAAKAYRSPVYYWGQGTQVTVSS | high polyreactivity
28 | QVQLVESGGGLVQAGGSLRLSCAASGFIFDTYAMGWYRQAPGKERELVAAISYRGGSTYYADSVKGRFTISRDNAKNTVYLQMNSLKPEDTAVYYCNAYWRYSYFGRDYWGQGTQVTVSS | low polyreactivity
29 | QVQLVESGGGLVQAGGSLRLSCAASGFTFRTYAMGWYRQAPGKERELVAAISKSGGSTYYADSVKGRFTISRDNAKNTVYLQMNSLTPEDTAVYYCNAGEASWFSLHYYWGQGTQVTVSS | high polyreactivity
30 | QVQLVESGGGLVQAGGSLRISCAASGSIFYLYTIGWYRQAPGKERELVAAITSGGSTNYADSVKGRFTISRDNAKNTVYLQMNSLKPEDTAVYYCAAEYFDWWVTYDYWGQGTQVTVSS | high polyreactivity
31 | QVQLVESGGGLVQAGGSLRLSCAASGITFQGYTIGWYRQAPGKERELVAAISSNGGRTYYADSVKGRFTISRDNAKNTVYLQMNSLKPEDTAVYYCAARKWRLIVDYWGQGTQVTVSS | high polyreactivity
32 | QVQLVESGGGLVQAGGSLRLSCAASGRTFRWYAMGWYRQAPGKERELVADISSVGSTDYADSVKGRFTISRDNAKNTVYLQMNSLKPEDTAVYDCAADFSPRRYHNRSFGYWGHGTQVTVSS | low polyreactivity
33 | QVQLVESGGGLVQAGGSLRLSCAASGSISSQYAMGWYRQAPGKERELVAAISYSGGSTYYADSVKGRFTISRDNAKNTVYLQMNSLKPEDTAVYYCAAETSYYTRWFDGHYYYWGQGTQVTVSS | high polyreactivity
34 | QVQIVESGGGLVQAGGNLRLSCAASGFIFTRYAMGWYRQAPGKERELVAAISTSVDRTYYADSVKGRFSISRDNAKNTVYLQMNSLKPEDTAVYYCAVVRPRSVGRYDYWGQGTQVTVSS | high polyreactivity
35 | QVQLVESGGGLDQAGGSLRLSCAASGMTFHPYAMGWYRQAPGKERELVAAISSRGTSTYYADSVKGRFTISRDIAKNTVYLQMNSLKPEDTAVYYCAAEVITIGLYRYGYWGQGTQVTVSS | high polyreactivity
36 | QDQLVESGGGLVQAGGSLRLSCSAYGSILKNNAMGLYIQSPGQERELVAAISSDGSTNYADSVKGRFRISRDNAKNTVYLQMNSLKPEDTAVYYCAAHDNGAWVRMDYWGQGTQVTVSS | low polyreactivity
37 | QVQLVESGGGLVQAGGSLRLSCAASGSIFVRYAMGWYRQAPGKERELVASIRSRGDSTYYADSVKGRFTISRDNAKNTVYLQMNSLKPEDTAVYYCAGRRYPPRMDYWGQGTQVTVSS | high polyreactivity
38 | QVQLVESGGGLVQAGGSLRLSCAASGGTYGTNAMGWYRQAPGKERELVAAITKTGVRTYYADSVKGRFTISRDNAKNTVYLQMNSLKPEDTAVYYCAAGNPAWPFNYWGQGTQVTVSS | high polyreactivity
39 | QVQLVESGGGLVQAGGSLRLSCAASGSIFAGNAMGWYRQAPGKEREFVAAITWSGGSTYYADSVKGRFTISRDNAKNTVYLQMNSLKPEDTAVYYCAARAYKRKTYYYWGQGTQVTVSS | high polyreactivity
40 | QVQLVESGGGLVQAGGSLRLSCAASGRTFYDYAMGWYRQAPGKERELVASITGGASTNYADSVKGRFTISRDNAKNTVYLQMNSLKPEDTAVYYCAGRLYRGNVWDILLGGDYWGQGTQVTVSS | low polyreactivity
41 | QVQLVESGGGLVQAGGSLRLICAASGSTFGYYTMGWYRQAPGKERELVAAITWSGGSTYYADSVKGRFTISRDYANNTVYLQMNSLKPEDTAVYYCAADDYWTPFGYWGQGTQVTVLS | low polyreactivity
42 | QVQLVESGGGLVQAGGSLRLTCAASGSIFAAKAMGWYRQAPGKERELVAAIRTRTGSTYYADSVKGRFTISRDNAKNTVYLEMNSLKPEDTAVYYCAADGGVPFWIHSTYYYWGQGTQVTVSS | low polyreactivity
43 | QVQLVESGGGLVQAGGSLRLSCAASGFTFTGYTMGWYRQAPGKQRELVATISGSGGNTYYADSVKGRFTISRDNAKNTVYLQMNSLKPEDTAVYYCARRRSGPRVLYYYWGQGTQVTVSS | low polyreactivity
